From the RNAGym collection of RNA variant scans (doi:10.7554/elife.80360)

B1: HDV Ribozyme (parent)
chain: GGCCGGCAUGGUCCCAGCCUCCUCGCUGGCGCCGGCUGGGCAACAUUCCGAGGGGACCGUCCCCUCGGUAAUGGCGAAUGGGACCCA

Variants of: B1
Assay: self-cleavage, relative activity (ratio to wild type); higher = more cleavage; co-transcriptional

Variant | self-cleavage
C22A C75A | 0.0308
C22A C75G | 0.0604
C22G G38U | 0.117
C21G G80C | 0.177
C21U G52C | 0.173
C21G G35A | 0.0817
C21U U79A | 0.0573
C21G C75A | 0.0415
C21G C75U | 0.0378
C22G G25A | 0.0396
C21G U72C | 0.0426
C21G C36A | 0.0405
C21G C36G | 0
C21G C36U | 0.0326
C22G U60C | 0.0332
C22G A87G | 0.106
C22G A83G | 0.126
C21U U37C | 0.354
C21U G80A | 0.185
C22A C49U | 0.338
U23A G39U | 0.696
C22G C66U | 0.0308
U23A A87G | 0.816
U23A A87C | 1

Variant | self-cleavage
U23A A87U | 0.99
C22U C24A | 0.302
C22U C24U | 0.22
C22U U37C | 0.415
C22U C48U | 0.727
C22A G40U | 0.0978
C22A G40A | 0.367
C22A A83C | 0.147
C22A U69G | 0.394
C22A U69C | 0.393
C22G G68A | 0.132
C21U C22U | 0.0702
C21G G73A | 0.111
C22U C32U | 0.65
C21G C62G | 0.0755
U23C A71G | 0.9
C22U C86U | 0.674
C21U C58G | 0.227
C22G G35C | 0.0978
C21U C62G | 0.244
C22A U65A | 0.237
C22A C32G | 0.0437
C22A C32A | 0.0678
U23A C49U | 1.13

Variant | self-cleavage
C22A U46G | 0.172
C21G G68U | 0
U23C A77U | 0.353
U23C A77G | 0.587
C21U G25C | 0.119
U23A C36G | 0.17
C21G G76C | 0
C22U A77U | 0.233
C22G C33A | 0
C22G C33U | 0.0268
C22G C33G | 0
C22G G40A | 0
C22G G40C | 0.0665
C21G C57G | 0.0437
C22U C84G | 0.291
C21U C61A | 0.176
C21U A43C | 0.0545
C22U U72C | 0.193
C22G U27G | 0.0978
C22G U27A | 0.208
C21G C64A | 0.131
C21G C64U | 0.0287
C21U C49U | 0.245
C21U C49G | 0.102

Variant | self-cleavage
C22A C66G | 0.373
U23C C62A | 0.762
C22U U47G | 0.58
C21U G59A | 0.154
U23A U72G | 0.302
C22G U79A | 0.0615
U23A A42U | 0.57
C22A C86U | 0.293
U23A G50U | 0.964
U23C C32A | 0.125
U23C C32U | 0.587
U23A U60G | 0.923
U23A U60A | 0.98
U23C C64U | 0.786
C22U G73A | 0.192
C21U G53U | 0.234
C21G A83G | 0.0987
C22A C24A | 0.188
C22A C24U | 0.0361
C22A C24G | 0
U23C A45C | 0.573
C22U C58U | 0.684
C22U C58A | 0.914
C21G G55A | 0.0941

Variant | self-cleavage
C21G G55C | 0.135
C22U G50A | 0.745
C21U G29A | 0.0683
C21U G29C | 0.0773
C21G G39C | 0.554
U23A C32U | 0.929
U23A C32G | 0.253
C21G C48U | 0.0707
C21G U27A | 0
C22U C64G | 0.751
C22A A87C | 0.491
C21U G28C | 0.0449
U23A A78G | 0.697
C22A G59C | 0.361
C22G U65G | 0.155
C22G U65A | 0.0504
C21U C85U | 0.511
C21A U79C | 0.111
C22U C49U | 0.45
C22U C49A | 0.665
C22U C49G | 0.684
U23A G35C | 0.212
U23A G35U | 0.431
U23A G76U | 0.941

Variant | self-cleavage
U23A C48A | 0.88
C21U A45U | 0.283
C21U A77U | 0.13
C21G C30A | 0
C21U C63G | 0.119
C22A C48G | 0.363
C22U A43G | 0.116
U23C C63G | 0.813
C22A G55U | 0.353
C22G G39U | 0.102
U23C C44A | 0.462
U23C C44G | 0.185
C21U U46G | 0.0978
C21U U46C | 0.386
C21U U46A | 0.511
C22G G31A | 0.121
C21G G29U | 0.0733
U23C C33U | 0.697
C22U C85A | 0.59
U23A | 0.985
U23C | 0.987
C21G U65G | 0
C22U G52U | 0.795
C21U G76U | 0.542

Variant | self-cleavage
C22A C30U | 0.121
C22A C30A | 0.0405
U23A G54C | 1.15
U23A G54A | 1.01
C22G G54U | 0.0841
C21A U46A | 0.322
C22G G81A | 0.0528
C22U G40A | 0.643
C22U G40C | 0.166
C22U G40U | 0.394
C21U C36G | 0
C22G G53U | 0.0563
C22G G50C | 0
C22G G50A | 0.0504
C22A G34U | 0.0536
C22U G67U | 0.548
C22A U72C | 0
C22G A42U | 0.0639
C22A G53C | 0.157
C22A G53A | 0.222
C22G G55C | 0.109
U23C A87C | 0.929
C22U G76C | 0.763
C22U G68A | 0.631

Variant | self-cleavage
C21G A77U | 0.0426
C22G C63A | 0.166
C22G C63G | 0
C22A U23G | 0
C22A U23C | 0.0978
C22U C33G | 0.163
C21G A45G | 0.185
C21U U23C | 0.175
C21U U23G | 0.13
C22G C41G | 0.0831
C21G G54C | 0.0264
U23A A70C | 1.01
C21U A71G | 0.243
C22A G29U | 0.128
U23A C84A | 0.944
C22U G80C | 0.0712
C22U G80A | 0.113
C22U G80U | 0.11
C22U A51G | 0.721
C22G A51U | 0.0339
C21G G34C | 0.111
U23A U27G | 0.762
C22U G82C | 0.198
C22G G29C | 0.0536

Variant | self-cleavage
C22G G29A | 0.0886
C22U U23C | 0.68
U23C C85G | 0.869
C22A G67C | 0.337
C22U A45G | 0.656
U23A G74C | 0.323
C22U G53U | 0.61
C22U G53A | 0.821
C22U G81A | 0.0911
U23A G81C | 0.306
U23A G81A | 0.305
U23A G81U | 0.134
C21A U37G | 0.208
C21G U60C | 0.0489
U23A C41G | 0.849
C21U G34C | 0
C22U C57A | 0.846
C22A U60G | 0.177
C21G C63A | 0.106
C21G C63G | 0.0378
C21G C63U | 0.0339
C21A U69A | 0.175
C21G A42C | 0.166
C22G C48A | 0.141

Variant | self-cleavage
C22G G67U | 0.0519
U23A G59U | 1.09
U23A G59C | 0.811
U23A G59A | 1.12
U23C A56U | 0.987
U23A A56G | 1.02
C21G C32U | 0.128
C21U C26G | 0.406
C22G G52A | 0.112
C22G G52U | 0.0314
U23C A42G | 0.227
C22U A42C | 0.122
C22U A42U | 0.138
C21G G53C | 0.0978
C21G C66U | 0.0475
C21G G28U | 0.0287
C22G U72C | 0
U23C C84A | 0.911
U23C C84U | 0.831
C22U G34U | 0.145
C21U C64G | 0.364
U23C C30A | 0.369
C22A C41U | 0.252
U23C A70U | 0.917

Variant | self-cleavage
C22A U79G | 0.0573
C21G G74U | 0.0554
C21G G74A | 0.0511
C21G U46C | 0.104
C22G G80A | 0.135
U23A U37A | 0.0997
U23A U37C | 1.08
C22U G28U | 0.148
U23A C58A | 1.12
C21U U69G | 0.19
C21U U69A | 0.148
C22A G81C | 0.128
C22G G76A | 0.0354
U23A C62U | 0.966
C21G G67U | 0.0723
C22U A70C | 0.656
C21U C86A | 0.505
C21U C86G | 0.253
C21G U37A | 0.119
C21G U37C | 0.0615
C22A G38U | 0.554
C22A G38A | 0.0608
C22A C44U | 0.0282
U23C A78C | 0.231

Variant | self-cleavage
C22G A78U | 0.0396
C22G A71U | 0.0923
C21A U72A | 0
U23A C33A | 0.237
U23A C33U | 1.05
C21G C85U | 0
C22U C63U | 0.76
U23A G52A | 1.02
C22G A45U | 0.0415
C21U A42C | 0.203
C21U A42G | 0.0652
C21G U69G | 0
C21G G25A | 0.185
C22G U23A | 0.0941
C22G U23G | 0
C22A U47G | 0.232
C22U G38U | 0.149
U23C A43C | 0.465
U23C A43G | 0.277
U23A A51U | 0.923
C22G A77C | 0.0426
C22G C85G | 0.0396
U23A G40A | 1.14
C21U U27G | 0.0755

Variant | self-cleavage
C22U G74U | 0.0683
U23A G28A | 0
U23A G28C | 0.142
C22A G50A | 0.235
U23A G80C | 0.101
C22A G68A | 0.298
C21U G67A | 0.158
U23A A45C | 0.344
C22A A45G | 0.225
C22A A43U | 0.0437
C21G A78U | 0.196
C22A A51C | 0.341
C21U C33G | 0.104
C21U C33A | 0
C21U C33U | 0.147
U23A C26A | 1.23
U23A C26U | 1.08
C22U G55C | 0.642
U23C C86U | 0.6
U23C C86A | 0.857
U23A A43G | 0.516
C21G A70C | 0.225
C21G A70G | 0.185
C22A A42C | 0

Variant | self-cleavage
C22A A42G | 0
C22G C84U | 0.0563
U23A C75G | 0.116
U23A C75A | 0.277
C22G G59A | 0.124
C22U G29A | 0.249
C22U G29U | 0.101
C21U C32U | 0.205
C22A C57A | 0.208
U23A G25U | 0.104
C21G C41G | 0.095
C22G C49G | 0.0277
C21G G59C | 0.106
C21U U60G | 0.122
C21G G38C | 0
U23A U65A | 0.778
U23A U47G | 0.748
U23A U47A | 0.877
C22U C44G | 0.095
C21U G55A | 0.231
C21U G55C | 0.18
U23C C66A | 0.982
